Test results: PMC2198810

Key:
[1] = molecular target: gelsolin (African green monkey (endogenous in CV1)); test: co-IP
[2] = molecular target: actin (African green monkey (endogenous in CV1)); test: pull-down

Which results are given for actin (natural protein)?
actin:gelsolin 35S intensity ratio, PIP5KI-overexpressing cells [1]: 25.7%; actin:gelsolin 35S intensity ratio, β-gal cells [1]: 39.4%

Which actin:gelsolin staining intensity ratio, PIP5KI-overexpressing cells [2] does the source give for gelsolin (natural protein) here?
The actin:gelsolin staining intensity ratio, PIP5KI-overexpressing cells was 1.25.

What about the actin:gelsolin staining intensity ratio, β-gal cells [2] of the same substance?
The actin:gelsolin staining intensity ratio, β-gal cells was 1.91.

profilin (natural protein) was tested. Which decrease in profilin bound to actin, PIP5KI-overexpressing against β-gal cells [2] did it give?
Its decrease in profilin bound to actin, PIP5KI-overexpressing against β-gal cells is 51%.
